# According to patent publication US7666644B2, “Glyphosate-N-acetyltransferase (GAT) genes” (Verdia, Inc., priority 2004, dated 2010):
# Substitutions are numbered along the chain they refer to.
# B1: 0—5B8: evolved GAT gene, SEQ ID NO:190 (nucleic acid)
# DNA: ATGATAGAGGTGAAACCGATTAACGCAGAGGATACCTATGAACTAAGGCATAAAATACTCAGACCAAACCAGCCGATAGAAGCGTGTATGTATGAAAGCGATTTACTTCGTGGTGCATTTCACTTAGGCGGCTTTTACAGGGGCAAACTGATTTCCATAGCTTCATTCCACCAGGCCGAGCACTCAGACCTCCAAGGCCAGAAACAGTACCAGCTCCGAGGTATGGCTACCTTGGAAGGTTATCGTGATCAGAAAGCGGGATCGAGTCTAATTAGACACGCTGAACAAATTCTTCGTAAGAGGGGGGCGGACTTGCTTTGGTGCAATGCGCGGACATCCGCCTCAGGCTACTACAAAAAGTTAGGCTTCAGCGAGCAGGGAGAGATATTTGATACGCCGCCAGTAGGACCTCACATCCTGATGTATAAAAGGCTCACA
# modifications: Synthetic nucleic acid sequence; 0_5B8
# B2: R12G1: further evolved GAT enzyme, SEQ ID NO 917 (protein)
# chain: MIEVKPINAEDTYDLRHRVLRPNQPIEACMFESDLTRGAFHLGGFYGGKLISVASFHQAEHTELQGKKQYQLRGVATLEGYREQKAGSSLVKHAEEILRKRGADMIWCNARTSASGYYRKLGFSEQGEVFDTPPVGPHILMYKRIT
# modifications: R12G1
# B3: R12G6: further evolved GAT enzyme, SEQ ID NO:927 (protein)
# chain: B2 chain with E32D, S33N, G38S, T62S
# modifications: R12G6
# B4: 22-13B12: GAT polypeptide, SEQ ID NO: 781 (protein)
# chain: B2 chain with T36M, T62S, K67Q, V75M, M105I, I106L
# modifications: D_S00397672_22-13B12
# B5: R12G2: further evolved GAT enzyme, SEQ ID NO:919 (protein)
# chain: B2 chain with G38S
# modifications: R12G2
# B6: R12G8: further evolved GAT enzyme, SEQ ID NO:931 (protein)
# chain: B2 chain with E32D, S33N, T36M, G38S, Y46H, K67Q, I106L
# modifications: R12G8
# B7: R12G7: further evolved GAT enzyme, SEQ ID NO:929 (protein)
# chain: B2 chain with E32D, S33N, T36M, Y46H, K67Q, I106L
# modifications: R12G7
# B8: R12G3: further evolved GAT enzyme, SEQ ID NO:921 (protein)
# chain: B2 chain with E32D, S33N, T62S
# modifications: R12G3
# B9: R12G4: further evolved GAT enzyme, SEQ ID NO:923 (protein)
# chain: B2 chain with D14E, E32D, G38S, T62S
# modifications: R12G4
# B10: 20-8H12: evolved GAT; polypeptide SEQ ID NO:739, gene SEQ ID NO:738 (protein)
# chain: B2 chain with D14E, M30I, T36M, K49R, T62S, K67Q, V75M, M105L, I106L, R119K
# modifications: D_S00341806_GAT20-8H12
# B11: 22-15B4: GAT enzyme SEQ ID NO:789; Table 9 prints SEQ ID NO: 946 (protein)
# chain: B2 chain with E32D, T36M, G38S, K67Q, A103V, M105L, I106L, R119K
# modifications: D_S00397832_GAT22-15B4
# B12: R12G5: further evolved GAT enzyme, SEQ ID NO:925 (protein)
# chain: B2 chain with D14E, E32D, T62S
# modifications: R12G5
# B13: 22-18C5: GAT polypeptide, SEQ ID NO: 795 (protein)
# chain: B2 chain with T62S, K67Q, S88T, A103V, M105L, I106L
# modifications: D_S00398097_GAT22-18C5
# Key:
# N[C@@H](CC(=O)O)C(=O)O = assay: purified protein, by the assay type; conditions: other: 25 mM Hepes, pH 6.8, 10% ethylene glycol
# Description: (§1) GAT activity of several GAT polypeptides of the present invention was evaluated with respect to a number of amino acid substrates. The GAT polypeptide, AcCoA and amino substrate were incubated in 25 mM Hepes, pH 6.8, 10% ethylene glycol in the wells of a 96-well polystyrene plate. After 30 minutes, the reactions were stopped by the addition of 30 μl of 10 mM 5,5′-dithiobis-2-nitrobenzoate (DTNB) in 500 mM Tris, pH 7.5. After 2 minutes, absorbance was read at 412 nm in a Spectramax Plus plate reader (Molecular Devices, Sunnyvale, Calif.).
# N[C@@H](CO)C(=O)O = assay: purified protein, by the assay type; conditions: other: 25 mM Hepes, pH 6.8, 10% ethylene glycol
# Description: as §1
# O=C(O)CNCP(=O)(O)O = assay: purified protein, by the assay type; conditions: other: 25 mM Hepes, pH 6.8, 10% ethylene glycol
# Description: as §1
# tobacco plants = assay: Herbicide spray tests of GAT expressing tobacco plants; type: in vivo, Nicotiana tabacum
# Description: Tobacco shoots generated as described in EXAMPLE 9 were excised from the explants and transferred to basal root induction (BRI) medium composed of half-strength Murashige and Skoog (MS) medium, pH 5.7, with 1.5% sucrose, 0.3% Gelrite, 0-200 uM glyphosate and 400 ug/ml Timentin. Rooted plants and axillary shoots were clonally propagated by cutting the stem and transferring it to fresh BRI medium until the desired number of clones was obtained. Rooted plants were carefully removed from the solid medium. Prior to placing the plants into small pots of soil, the roots were washed to remove any remaining Gelrite. A protective plastic cover was kept over the plants for at least one week until the plants were well established.
# To determine if GAT expressing tobacco plants could tolerate simulated field rate sprays of glyphosate, clonal lines of several events per GAT variant were tested. A typical test was set up as follows: One clone from each event was sprayed with 1 ml of solution containing the isopropylamine salt of glyphosate (Sigma P5671) and 0.125% Triton X-100, pH 6.8 such that the amount of active ingredient sprayed was equivalent to that present in commercial glyphosate products. For example, to achieve 32 oz/acre (1×) of herbicide containing 40% active ingredient (“ai”), 2.4 ul of 40% ai formulation was diluted into 1 ml water and sprayed on a plant in a 4-inch square pot (16 in^2). A mock application (0×) with surfactant only was also included. In some cases a second spray was applied 1-4 weeks later. Plants were kept in controlled growth rooms at 25° C. and 70% humidity with 16 hr light.
# Seed-grown wild type plants were also sprayed. […] All 0× plants were healthy, including the non-GAT control plants. Three weeks later all of the surviving plants were sprayed with an 8× dose.
# [1] = Kinetic parameters by continuous spectrophotometric assay in the presence of 20 mM KCl, protein quantified via UV absorbance; type: biochemical; conditions: templates GAT 24-5H5 or GAT 25-8H7
# Description: The further evolved gat genes were first selected for growth in E. coli in minimal M9 medium as described in Example 8, except that 5 mM rather than 1 mM glyphosate was used in the selection. Proteins were purified as described in Example 6 above.
# Protein concentrations were determined by UV absorbance at 205 nm. The extinction coefficient was determined by the method described by Scopes (1994; Protein Purification, Principles and Practice, Springer, NewYork) according to the formula E (mg ml^−1 cm^−1)=27+120(A280/A205)=30.5. Prior to quantitation by UV absorbance the protein solution was buffer-exchanged into 50 mM Na2SO4 using a NAP-5 column (Amersham-Pharmacia Biotech).
# Error bars represent the standard deviation of multiple assays, where available.
# [2] = type: physicochemical; conditions: buffer, pH 7.2
# Description: The half lives of several GAT polypeptides were also measured at 37.5° C. according to the following procedure. GAT polypeptides 401 (SEQ ID NO: 6), 17-15H3 (SEQ ID NO: 601), 20-8H12 (SEQ ID NO: 739), 22-13B12 (SEQ ID NO: 781), 22-15B4 (SEQ ID NO: 946) and 22-18C5 (SEQ ID NO: 795) were incubated in a matrix of 25 mM Hepes, pH 7.2, 10 mM KCl and 10% methanol (“HKM”). At various timepoints, aliquots were withdrawn and assayed in triplicate at 22° C. using the continuous spectrophotometric assay described in Example 7 using saturating concentrations of glyphosate (20 mM for 401, 5 mM for the rest) and AcCoA (167 uM). The standard error at each time point averaged about 2.9%. GAT activity was plotted as a function of incubation time and the data was fitted to a curve for exponential decay (y=e^−x), where y is enzyme activity and x is time in hours, from which half life was calculated.
molecule,measurement,setting,value
"native GAT polypeptide 401 (glyphosate-N-acetyltransferase), wild type, SEQ ID NO: 6 (Bacillus licheniformis DSM 13 = ATCC 14580)",Km,N[C@@H](CC(=O)O)C(=O)O,6.7 MM
same,kcat,N[C@@H](CC(=O)O)C(=O)O,0.402 s⁻¹
same,kcat/Km,N[C@@H](CC(=O)O)C(=O)O,60 M⁻¹ s⁻¹
same,Km,N[C@@H](CO)C(=O)O,43 MM
same,kcat,N[C@@H](CO)C(=O)O,14.2 s⁻¹
same,kcat/Km,N[C@@H](CO)C(=O)O,330 M⁻¹ s⁻¹
same,Km,O=C(O)CNCP(=O)(O)O,1.27 ± 0.0144 MM
same,kcat,O=C(O)CNCP(=O)(O)O,0.08917 ± 0.000717 s⁻¹
same,kcat/Km,O=C(O)CNCP(=O)(O)O,70.2 M⁻¹ s⁻¹
"non-native GAT polypeptide 25-8H7 (glyphosate-N-acetyltransferase), SEQ ID NO: 907 (Bacillus licheniformis DSM 13 = ATCC 14580; E119R/E14D/E65Q/E67K/E68K/G37R/G38S/I132T/I135V/I15L/I19V/I53V/I91V/K101R/K144R/K58Q/L105M/L106I/L145I/L26I/L36T/L97I/M75V/R47G/R92K/T33S/T89S/V114A/Y130F/Y31F/Y45F)",Km,N[C@@H](CC(=O)O)C(=O)O,4.56 ± 0.112 MM
same,kcat,N[C@@H](CC(=O)O)C(=O)O,11.7 ± 0.207 s⁻¹
same,kcat/Km,N[C@@H](CC(=O)O)C(=O)O,2570 M⁻¹ s⁻¹
same,Km,O=C(O)CNCP(=O)(O)O,0.05 MM
same,kcat,O=C(O)CNCP(=O)(O)O,24.7 ± 1.09 s⁻¹
same,kcat/Km,O=C(O)CNCP(=O)(O)O,493000 M⁻¹ s⁻¹
"non-native GAT polypeptide 17-15H3 (glyphosate-N-acetyltransferase), SEQ ID NO: 601 (Bacillus licheniformis DSM 13 = ATCC 14580; E119K/E65Q/E67Q/E68K/G37R/I132T/I135V/I15L/K101R/K144R/K58Q/L145I/L26I/L97I/R47G/R92K/T33S/T89S/V114A/Y130F/Y31F)",Km,N[C@@H](CC(=O)O)C(=O)O,2.95 ± 0.162 MM
same,kcat,N[C@@H](CC(=O)O)C(=O)O,7.25 ± 0.188 s⁻¹
same,kcat/Km,N[C@@H](CC(=O)O)C(=O)O,2470 M⁻¹ s⁻¹
same,Km,N[C@@H](CO)C(=O)O,60.1 ± 1.68 MM
same,kcat,N[C@@H](CO)C(=O)O,4.03 ± 0.263 s⁻¹
same,kcat/Km,N[C@@H](CO)C(=O)O,67.3 M⁻¹ s⁻¹
same,Km,O=C(O)CNCP(=O)(O)O,0.251 ± 0.0041 MM
same,kcat,O=C(O)CNCP(=O)(O)O,19.2 ± 0.46 s⁻¹
same,kcat/Km,O=C(O)CNCP(=O)(O)O,76200 M⁻¹ s⁻¹
B1,outcome two weeks after glyphosate spray,"tobacco plants; 0.5, 2 or 4× glyphosate (1× = 32 oz/acre of 40% ai), clonally propagated events, average of 5 leaves",survived the spraying procedure without signs of glyphosate damage
same,outcome after second spray with an 8× dose,tobacco plants; 8× glyphosate three weeks later,survived
B2,GAT activity compared with the template polypeptides,[1],extremely high GAT activities comparable to those of the template polypeptides
B3,GAT activity compared with the template polypeptides,[1],extremely high GAT activities comparable to those of the template polypeptides
B4,Half-life,[2],67 h
B5,GAT activity compared with the template polypeptides,[1],extremely high GAT activities comparable to those of the template polypeptides
B6,GAT activity compared with the template polypeptides,[1],extremely high GAT activities comparable to those of the template polypeptides
B7,GAT activity compared with the template polypeptides,[1],extremely high GAT activities comparable to those of the template polypeptides
B8,GAT activity compared with the template polypeptides,[1],extremely high GAT activities comparable to those of the template polypeptides
B9,GAT activity compared with the template polypeptides,[1],extremely high GAT activities comparable to those of the template polypeptides
B10,Half-life,[2],54 h
B11,Half-life,[2],26 h
B12,GAT activity compared with the template polypeptides,[1],extremely high GAT activities comparable to those of the template polypeptides
B13,Half-life,[2],43 h
